Patent US20160369011A1 (EISAI R AND D MANAGEMENT, published 2016)

T1: human CD73 (human, UniProt P21589 27-547, limits assumed)
T1 construct: also called control antigen
T1 sequence (looked up): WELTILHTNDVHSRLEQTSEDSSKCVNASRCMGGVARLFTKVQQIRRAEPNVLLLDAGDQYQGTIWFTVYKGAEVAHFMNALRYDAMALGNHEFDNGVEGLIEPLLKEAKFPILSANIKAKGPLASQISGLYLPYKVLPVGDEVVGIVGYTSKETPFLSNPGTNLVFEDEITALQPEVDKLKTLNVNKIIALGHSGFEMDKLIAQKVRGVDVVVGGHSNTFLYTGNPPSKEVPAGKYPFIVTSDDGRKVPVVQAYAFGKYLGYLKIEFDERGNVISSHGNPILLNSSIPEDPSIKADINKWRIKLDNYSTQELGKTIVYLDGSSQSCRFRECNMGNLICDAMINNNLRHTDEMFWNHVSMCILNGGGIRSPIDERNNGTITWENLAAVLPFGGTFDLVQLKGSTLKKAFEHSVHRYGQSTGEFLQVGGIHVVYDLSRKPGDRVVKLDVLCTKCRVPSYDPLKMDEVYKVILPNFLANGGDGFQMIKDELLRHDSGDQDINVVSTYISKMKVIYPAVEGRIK


Key:
human CD73 [1] = biological target: T1, human CD73; experiment: ELISA, B cell culture supernatant, 2nd screening
human MSLN (mesothelin) [2] = biological target: T2, human MSLN (mesothelin) (human, UniProt Q13421 296-598); experiment: ELISA on human MSLN, B cell culture supernatant, 1st screening
T2 construct: The construct coated on the plates is not described; also called human mesothelin

human MSLN (mesothelin) [3] = biological target: T2, human MSLN (mesothelin); experiment: ELISA on human MSLN, B cell culture supernatant, 2nd screening
human CD73 [4] = biological target: T1, human CD73; experiment: ELISA on control antigen human CD73, B cell culture supernatant, 2nd screening
[5] = biological target: T3, human CA9 (carbonic anhydrase IX) (human, UniProt Q16790 38-414); experiment: SPR (BIAcore), biotin-CA9 captured on CAP chip, antibody 0-50 nM as analyte
Protocol: To determine if chimerization, and therefore the loss of Cys80-Cys171 disulfide bond, results in structural perturbations leading to loss of antigen binding, the binding affinity of mAbs 155D5, xi155D5, 1-55-2, and xi1-55-2 by surface plasmon resonance was evaluated. Biotinylated ligand (biotin-hTEM1 for 1-55-2, biotin-CA9 for 155D5) was captured on a coated biotin CAP BIAcore chip (GE Healthcare, Piscataway, N.J.) using HBS-EP as running buffer. Final antigen capture levels were 130 RU and 280 RU, respectively, for biotin-TEM1 and biotin-CA9. Serial dilutions of antibody (120 μL of 0-50 nM) were passed over the ligand-coated chip. […] The chip surface was regenerated with 6 M GuHCl, 250 mM NaOH. Sensograms were double referenced and kinetic parameters were determined using BIAEvaluations software (ver. 4.1).

[6] = biological target: T3, human CA9 (carbonic anhydrase IX); experiment: BIAcore T100, mAb captured on anti-human IgG, antigen as analyte, 1:1 model; mAb purified by protein A (ProA)
Protocol: (§1) Antibody concentrations were adjusted to generate 30-40 RU signal when bound to the antigen. […] The sensor surface was washed by injecting HBS-P buffer for 1 min at a flow rate of 50 μL/min. To record the antigen association to the captured mAb, a series of increasing concentrations of antigen was injected for 60 sec at a flow rate of 50 μL/min. The dissociation of antigen was monitored for 30 min at the same flow rate. The sensor surface was regenerated by injecting 3 M MgCl₂ for 1 min and then 30 sec at a flow rate of 30 μL/min. Sensograms were analyzed with Biacore T100 Evaluation Software using a 1:1 Langmuir binding model.
(§2) xi155D5 and the humanized variants were purified by standard protein A chromatography or the decapping method, and their affinity was analyzed using BIAcore (Table 13).

[7] = biological target: T3, human CA9 (carbonic anhydrase IX); experiment: BIAcore T100, mAb captured on anti-human IgG, antigen as analyte, 1:1 model; mAb purified by protein A (ProA); protein A (ProA) purified, not decapped
Protocol: as §1, §2

T2 sequence (Q13421 other isoform, or with tags, fused parts or gaps limits assumed, form in doubt): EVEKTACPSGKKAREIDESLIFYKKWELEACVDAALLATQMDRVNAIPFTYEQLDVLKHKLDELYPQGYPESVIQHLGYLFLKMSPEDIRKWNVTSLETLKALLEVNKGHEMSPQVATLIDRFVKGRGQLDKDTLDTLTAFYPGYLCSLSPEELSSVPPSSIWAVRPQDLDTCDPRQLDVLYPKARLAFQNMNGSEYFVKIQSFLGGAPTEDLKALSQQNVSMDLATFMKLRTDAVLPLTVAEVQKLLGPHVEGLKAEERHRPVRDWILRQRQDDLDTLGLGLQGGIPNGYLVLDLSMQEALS

Row | Binder | binding result (human CD73 [1]) | Optical Density (Anti-MSLN reactivity, 1st screening) (human MSLN (mesothelin) [2]) | Optical Density (Anti-MSLN reactivity, 2nd screening) (human MSLN (mesothelin) [3]) | Optical Density (Anti-CD73 reactivity, 2nd screening) (human CD73 [4]) | Kd [5] | koff [5] | kon [5] | Kd [6] | koff [6] | kon [7]
1 | 237N18 (rabbit anti-MSLN mAb) (antibody, V domains shown) VH: QSLEESGGRLVAPGTPLTLTCTVSGFSLSSYHMSWVRQAPGEGLEWIGGITAMSRTYYASWAKGRFTISKTSTTVHLKITSPTTEDTATYFCAREPGFVSNIWGPGTLVTVSL VL: AVVLTQTASPVSGVVGGTVTIKCQASQNIYSNLAWYQQKPGQRPKLLMYDASTLASGVPSRFKGSGSGTQFTLTISDLECADAATYYCQSISSVDNNVFGGGTEVVVK | no binding | 0.362 OD | 0.668 OD | 0.0918 OD | – | – | – | – | – | –
2 | 383I18 (rabbit anti-MSLN mAb) (antibody, V domains shown) VH: QSVEESGGRLVTPGTPLTLTCTVSGFSLSSYAMGWVRQAPGEGLEWIGTISTGGITYYASWAKGRFTISKTSTTVDLKITSPTTEDTATYFCARVGSSGYLFYFFNLWGQGTLVTVSS VL: VFELTQTPSPVSAAVGGTVTIRCQASQNIKSYLAWYQQKPGQPPKLLIYEASILASGVSSRFKGSGSGTEFTLTISDLECADAATYYCQSYYAASSNAFGGGTEVVVK | no binding | 0.249 OD | 0.296 OD | 0.0744 OD | – | – | – | – | – | –
3 | 33O11 (rabbit anti-MSLN mAb) (antibody, V domains shown) VH: QSVEESGGRLVTPGTPLTLTCTVSGISLSSDAISWVRQAPGKGLEYIGIINGGGNTYYASWAKGRFTISKTSTTVDLKITSPTTEDTATYFCARGIQHGGGNSDYYYYGMDLWGPGTLVTVSS VL: EVLMTQTPSSVSAAVGDTVTIKCQASQSISSVLSWYQQKPGQPPKLLIYLASTLASGVPSRFSGSRSGTEFTLTISDLECDDAATYYCQTNYGTSSSNYGFAFGGGTEVVVK | no binding | 0.282 OD | 0.504 OD | 0.0818 OD | – | – | – | – | – | –
4 | 178F16 (rabbit anti-MSLN mAb) (antibody, V domains shown) VH: QSLEESGGRLVTPGTPLTLTCTASGFSLSNYAMTWVRQAPGKGLEYIGIISTGGITYYMDSAKGRFTISRTSTTVDLKMTSLTTEDTATYFCGRNAGGSYIFYYFDLWGQGTLVTVSS VL: AFELTQTPSSVEAAVGGTVTIKCQASQSIYSYLAWYQQKPGQPPKLLIYSASTLASGVSSRFRGSGSGTEYILTISDLECADAATYYCQTYYDIVTSTFGGGTEVVVK | no binding | 0.966 OD | 1.88 OD | 0.141 OD | – | – | – | – | – | –
5 | 324O5 (rabbit anti-MSLN mAb) (antibody, V domains shown) VH: QSLEESGGRLVTPGTPLTLTCTASGFSLSNYAMTWVRQAPGKGLEYIGIISTGGITYYMDSAKGRFTISRTSTTVDLKMTSLTTEDTATYFCGRNAGGSYIFYYFDLWGQGTLVTVSS VL: AFELTQTPSSVEAAVGGTVTIKCQASQSIYSYLAWYQQKPGQPPKLLIYSASTLASGVSSRFRGSGSGTEYTLTISDLECADAATYYCQTYYDIVTSTFGGGTEVVVK | no binding | 1.4 OD | 2.22 OD | 0.0801 OD | – | – | – | – | – | –
6 | xi155D5 (rabbit/human chimerized 155D5 mAb) (antibody, human IgG1, kappa, V domains shown, Human IgG1 kappa constant regions; Unpaired Cys80 of the light chain is capped by a free cysteine after plain protein A purification; also called xi155D5 mAb) VH: QSVKESGGRLVTPGTPLTLTCTVSGFSLNSYAMIWVRQAPGEGLEYIGFITTGGTTYYASWAKGRFTISRTSTTVDLKLTRPTTEDTATYFCARDRVKSYDDYGDLDAFEPWGPGTLVTISS VL: ELVMTQTPSSVSAAVGGTVTINCQASQSISSYLAWYQQKPGQPPKLLIYYASTLASGVPSRFKGSGSGTEFTLTITGVQCDDAATYYCLGVYGYSFDDGIAFGGGTELEIKR | – | – | – | – | 51 pM | 2.4e-05 s⁻¹ | 460000 M⁻¹ s⁻¹ | 324 pM | 0.000149 s⁻¹ | 458000 M⁻¹ s⁻¹
